The text below walks through data of patent US20190367592A1.

For the assay, the target named is monomeric cynomolgus monkey Tau (cynomolgus monkey). In words: SPR, hIgG captured, cyno Tau monomer analyte. On the technique in general: In SPR one partner is held on a chip, and binding of the other changes the refractive index at the surface.

B1: hu37D3.v28.A4 (antibody, V domains shown)
VH: EVQLVESGGGLVQPGGSLRLSCAASGLIFRSYGMSWVRQAPGKGLEWVATINSGGTYTYYPDSVKGRFTISRDNSKNTLYLQMNSLRAEDTAVYYCANSYSGAMDYWGQGTLVTVSS
VL: DDVLTQTPLSLPVTPGQPASISCRSSQSIVHSNGNTYLEWYLQKPGQSPQLLIYKVSNRFSGVPDRFSGSGSGTDFTLKISRVEAEDVGVYYCFQGSLVPWTFGQGTKVEIK
By Kd is commonly meant the constant that tells how readily two partners part at equilibrium. Broadly, the koff is a measure of how fast the partners let go of each other. What is called kon is a measure of how fast the partners come together. Molecule B1 returned a Kd of 0.7 nM, a koff of 0.001 s⁻¹ and a kon of 1.7e+06 M⁻¹ s⁻¹.

B2: hu37D3-H9.v1 (antibody, V domains shown)
VH: EVQLVESGGGLVQPGGSLRLSCAASGLIFRSYGMSWVRQAPGKGLEWVATINSGGTYTYYPDSVKGRFTISRDNSKNTLYLQMNSLRAEDTAVYYCANSYSGAMDYWGQGTLVTVSS
VL: EDQLTQSPSSLSASVGDRVTITCRSSQSIVHSNGNTYFEWYQQKPGKSPKLLIYKVSNRFSGVPSRFSGSGSGTDFTLTISSLQPEDFATYYCFQGSLVPWTFGQGTKVEIK
B2 yielded a Kd of 0.8 nM, a koff of 0.001 s⁻¹ and a kon of 2e+06 M⁻¹ s⁻¹.

B3: hu37D3-H9.v5 (antibody, V domains shown)
VH: EVQLVESGGGLVQPGGSLRLSCAASGLIFRSYGMSWVRQAPGKGLEWVATINSGGTYTYYPDSVKGRFTISRDNSKNTLYLQMNSLRAEDTAVYYCANSYSGAMDYWGQGTLVTVSS
VL: EDVLTQTPLSLPVTPGQPASISCRSSQSIVHSNGNTYFEWYLQKPGQSPQLLIYKVSNRFSGVPDRFSGSGSGTDFTLKISRVEAEDVGVYYCFQGSLVPWTFGQGTKVEIK
In turn, B3 had a Kd of 0.6 nM, a koff of 0.001 s⁻¹ and a kon of 1.5e+06 M⁻¹ s⁻¹.
